In US20260201008A1, “SECRETIN-DERIVED GLP1R SELECTIVE AGONISTS” (GUBRA A/S, priority 2023, published 2026):
Square brackets hold non-standard residues; d marks the D form. Ends that are not written are not given here. Aib = CC(C)(N)C(=O)O

Legend:
[1] = molecular target: human GLP-1 receptor (hGLP1R) (human, UniProt P43220 24-463); assay: cell-based or functional assay
[2] = molecular target: human secretin receptor (hSCTR) (human, UniProt P47872 23-440); assay: cell-based or functional assay
Chain of human secretin receptor (hSCTR) (P47872 23-440): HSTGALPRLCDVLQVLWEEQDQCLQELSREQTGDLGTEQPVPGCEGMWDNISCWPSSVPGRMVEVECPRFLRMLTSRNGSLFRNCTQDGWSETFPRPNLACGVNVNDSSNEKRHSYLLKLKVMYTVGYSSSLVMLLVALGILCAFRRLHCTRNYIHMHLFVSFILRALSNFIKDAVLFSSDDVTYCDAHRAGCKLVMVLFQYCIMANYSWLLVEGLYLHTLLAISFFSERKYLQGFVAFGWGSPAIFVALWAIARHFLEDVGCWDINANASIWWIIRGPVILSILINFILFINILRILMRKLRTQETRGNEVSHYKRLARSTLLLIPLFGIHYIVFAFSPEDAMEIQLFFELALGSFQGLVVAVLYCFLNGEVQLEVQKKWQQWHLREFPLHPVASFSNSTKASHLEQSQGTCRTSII

Binder | pEC50 hGLPR1 [1] | pEC50 hSCTR [2]
H[Aib]EGTFTSD[Aib]SVLLEGAALQRFIQWLV-NH2 (N-terminus assumed; SMILES CC[C@H](C)[C@H](NC(=O)[C@H](Cc1ccccc1)NC(=O)[C@H](CCCNC(=N)N)NC(=O)[C@H](CCC(N)=O)NC(=O)[C@H](CC(C)C)NC(=O)[C@H](C)NC(=O)[C@H](C)NC(=O)CNC(=O)[C@H](CCC(=O)O)NC(=O)[C@H](CC(C)C)NC(=O)[C@H](CC(C)C)NC(=O)[C@@H](NC(=O)[C@H](CO)NC(=O)C(C)(C)NC(=O)[C@H](CC(=O)O)NC(=O)[C@H](CO)NC(=O)[C@@H](NC(=O)[C@H](Cc1ccccc1)NC(=O)[C@@H](NC(=O)CNC(=O)[C@H](CCC(=O)O)NC(=O)C(C)(C)NC(=O)[C@@H](N)Cc1c[nH]cn1)[C@@H](C)O)[C@@H](C)O)C(C)C)C(=O)N[C@@H](CCC(N)=O)C(=O)N[C@@H](Cc1c[nH]c2ccccc12)C(=O)N[C@@H](CC(C)C)C(=O)N[C@H](C(N)=O)C(C)C) [SEQ ID NO: 110] | 9.7 -log M | 5.7 -log M
H[Aib]EGTFTSDISYLLEGAALQRFIQWLV-NH2 (N-terminus assumed; SMILES CC[C@H](C)[C@H](NC(=O)[C@H](Cc1ccccc1)NC(=O)[C@H](CCCNC(=N)N)NC(=O)[C@H](CCC(N)=O)NC(=O)[C@H](CC(C)C)NC(=O)[C@H](C)NC(=O)[C@H](C)NC(=O)CNC(=O)[C@H](CCC(=O)O)NC(=O)[C@H](CC(C)C)NC(=O)[C@H](CC(C)C)NC(=O)[C@H](Cc1ccc(O)cc1)NC(=O)[C@H](CO)NC(=O)[C@@H](NC(=O)[C@H](CC(=O)O)NC(=O)[C@H](CO)NC(=O)[C@@H](NC(=O)[C@H](Cc1ccccc1)NC(=O)[C@@H](NC(=O)CNC(=O)[C@H](CCC(=O)O)NC(=O)C(C)(C)NC(=O)[C@@H](N)Cc1c[nH]cn1)[C@@H](C)O)[C@@H](C)O)[C@@H](C)CC)C(=O)N[C@@H](CCC(N)=O)C(=O)N[C@@H](Cc1c[nH]c2ccccc12)C(=O)N[C@@H](CC(C)C)C(=O)N[C@H](C(N)=O)C(C)C) [SEQ ID NO: 112] | 10.8 -log M | 5.6 -log M
H[Aib]EGTFTSD[Aib]SFLLEGAALQRFIQWLV-NH2 (N-terminus assumed; SMILES CC[C@H](C)[C@H](NC(=O)[C@H](Cc1ccccc1)NC(=O)[C@H](CCCNC(=N)N)NC(=O)[C@H](CCC(N)=O)NC(=O)[C@H](CC(C)C)NC(=O)[C@H](C)NC(=O)[C@H](C)NC(=O)CNC(=O)[C@H](CCC(=O)O)NC(=O)[C@H](CC(C)C)NC(=O)[C@H](CC(C)C)NC(=O)[C@H](Cc1ccccc1)NC(=O)[C@H](CO)NC(=O)C(C)(C)NC(=O)[C@H](CC(=O)O)NC(=O)[C@H](CO)NC(=O)[C@@H](NC(=O)[C@H](Cc1ccccc1)NC(=O)[C@@H](NC(=O)CNC(=O)[C@H](CCC(=O)O)NC(=O)C(C)(C)NC(=O)[C@@H](N)Cc1c[nH]cn1)[C@@H](C)O)[C@@H](C)O)C(=O)N[C@@H](CCC(N)=O)C(=O)N[C@@H](Cc1c[nH]c2ccccc12)C(=O)N[C@@H](CC(C)C)C(=O)N[C@H](C(N)=O)C(C)C) [SEQ ID NO: 111] | 10.5 -log M | 5.7 -log M
H[Aib]EGTFTSD[Aib]SELLEGAALQRFIQWLV-NH2 (N-terminus assumed; SMILES CC[C@H](C)[C@H](NC(=O)[C@H](Cc1ccccc1)NC(=O)[C@H](CCCNC(=N)N)NC(=O)[C@H](CCC(N)=O)NC(=O)[C@H](CC(C)C)NC(=O)[C@H](C)NC(=O)[C@H](C)NC(=O)CNC(=O)[C@H](CCC(=O)O)NC(=O)[C@H](CC(C)C)NC(=O)[C@H](CC(C)C)NC(=O)[C@H](CCC(=O)O)NC(=O)[C@H](CO)NC(=O)C(C)(C)NC(=O)[C@H](CC(=O)O)NC(=O)[C@H](CO)NC(=O)[C@@H](NC(=O)[C@H](Cc1ccccc1)NC(=O)[C@@H](NC(=O)CNC(=O)[C@H](CCC(=O)O)NC(=O)C(C)(C)NC(=O)[C@@H](N)Cc1c[nH]cn1)[C@@H](C)O)[C@@H](C)O)C(=O)N[C@@H](CCC(N)=O)C(=O)N[C@@H](Cc1c[nH]c2ccccc12)C(=O)N[C@@H](CC(C)C)C(=O)N[C@H](C(N)=O)C(C)C) [SEQ ID NO: 109] | 10.1 -log M | 5.5 -log M
H[Aib]EGTFTSD[Aib]SWLLEGAALQRFIQWLV-NH2 (N-terminus assumed; SMILES CC[C@H](C)[C@H](NC(=O)[C@H](Cc1ccccc1)NC(=O)[C@H](CCCNC(=N)N)NC(=O)[C@H](CCC(N)=O)NC(=O)[C@H](CC(C)C)NC(=O)[C@H](C)NC(=O)[C@H](C)NC(=O)CNC(=O)[C@H](CCC(=O)O)NC(=O)[C@H](CC(C)C)NC(=O)[C@H](CC(C)C)NC(=O)[C@H](Cc1c[nH]c2ccccc12)NC(=O)[C@H](CO)NC(=O)C(C)(C)NC(=O)[C@H](CC(=O)O)NC(=O)[C@H](CO)NC(=O)[C@@H](NC(=O)[C@H](Cc1ccccc1)NC(=O)[C@@H](NC(=O)CNC(=O)[C@H](CCC(=O)O)NC(=O)C(C)(C)NC(=O)[C@@H](N)Cc1c[nH]cn1)[C@@H](C)O)[C@@H](C)O)C(=O)N[C@@H](CCC(N)=O)C(=O)N[C@@H](Cc1c[nH]c2ccccc12)C(=O)N[C@@H](CC(C)C)C(=O)N[C@H](C(N)=O)C(C)C) [SEQ ID NO: 108] | 10.1 -log M | 5.9 -log M
H[Aib]EGTFTSDIS[Aib]LLEGAALQRFIQWLV-NH2 (N-terminus assumed; SMILES CC[C@H](C)[C@H](NC(=O)[C@H](Cc1ccccc1)NC(=O)[C@H](CCCNC(=N)N)NC(=O)[C@H](CCC(N)=O)NC(=O)[C@H](CC(C)C)NC(=O)[C@H](C)NC(=O)[C@H](C)NC(=O)CNC(=O)[C@H](CCC(=O)O)NC(=O)[C@H](CC(C)C)NC(=O)[C@H](CC(C)C)NC(=O)C(C)(C)NC(=O)[C@H](CO)NC(=O)[C@@H](NC(=O)[C@H](CC(=O)O)NC(=O)[C@H](CO)NC(=O)[C@@H](NC(=O)[C@H](Cc1ccccc1)NC(=O)[C@@H](NC(=O)CNC(=O)[C@H](CCC(=O)O)NC(=O)C(C)(C)NC(=O)[C@@H](N)Cc1c[nH]cn1)[C@@H](C)O)[C@@H](C)O)[C@@H](C)CC)C(=O)N[C@@H](CCC(N)=O)C(=O)N[C@@H](Cc1c[nH]c2ccccc12)C(=O)N[C@@H](CC(C)C)C(=O)N[C@H](C(N)=O)C(C)C) [SEQ ID NO: 113] | 10.3 -log M | 7.1 -log M
H[Aib]EGTFTSD[Aib]S[Aib]LLEGAALQRFIQWLV-NH2 (N-terminus assumed; SMILES CC[C@H](C)[C@H](NC(=O)[C@H](Cc1ccccc1)NC(=O)[C@H](CCCNC(=N)N)NC(=O)[C@H](CCC(N)=O)NC(=O)[C@H](CC(C)C)NC(=O)[C@H](C)NC(=O)[C@H](C)NC(=O)CNC(=O)[C@H](CCC(=O)O)NC(=O)[C@H](CC(C)C)NC(=O)[C@H](CC(C)C)NC(=O)C(C)(C)NC(=O)[C@H](CO)NC(=O)C(C)(C)NC(=O)[C@H](CC(=O)O)NC(=O)[C@H](CO)NC(=O)[C@@H](NC(=O)[C@H](Cc1ccccc1)NC(=O)[C@@H](NC(=O)CNC(=O)[C@H](CCC(=O)O)NC(=O)C(C)(C)NC(=O)[C@@H](N)Cc1c[nH]cn1)[C@@H](C)O)[C@@H](C)O)C(=O)N[C@@H](CCC(N)=O)C(=O)N[C@@H](Cc1c[nH]c2ccccc12)C(=O)N[C@@H](CC(C)C)C(=O)N[C@H](C(N)=O)C(C)C) [SEQ ID NO: 107] | 9.8 -log M | 6 -log M
